From FireProtDB (doi:10.1002/pro.5560050915)

B1: Adrenodoxin, mitochondrial, P00257 (parent)
chain: MAARLLRVASAALGDTAGRWRLLARPRAGAGGLRGSRGPGLGGGAVATRTLSVSGRAQSSSEDKITVHFINRDGETLTTKGKIGDSLLDVVVQNNLDIDGFGACEGTLACSTCHLIFEQHIFEKLEAITDEENDMLDLAYGLTDRSRLGCQICLTKAMDNMTVRVPDAVSDARESIDMGMNSSKIE

Variants of: B1
Conditions: Bos taurus, pH 8.5, Thermal, DSC, ascorbate 1 mM, structure 1AYF, whole UniProt chain shown; for ddG of mutation (higher = less stable) / unfolding free energy: 37 °C

Variant | ddG of mutation (higher = less stable) [kcal/mol] | unfolding free energy [kcal/mol] | Tm [°C] | change of melting temperature, mutant - wild type (higher = more stable) [°C] | heat capacity change of unfolding [kcal/mol/K] | unfolding enthalpy (calorimetric) [kcal/mol]
D134E | -0.45 | 3.64 | 53.4 | 2.01 | 2.45 | 86.8
H114Q | – | – | 46.5 | -4.94 | 1.7 | 59.6
H114T | 1.19 | 1.99 | – | – | – | –
H114R | 1.16 | 2.02 | 49.3 | -2.11 | 1.03 | 59.4
C153S | – | – | 55.8 | 4.36 | 1.62 | 89.3
T112S | -0.05 | 3.23 | 51.6 | 0.21 | 1.91 | 84.7
T112A | 1.31 | 1.87 | 47.1 | -4.29 | 1.63 | 68.2
Y140F | 0.01 | 3.17 | 51.5 | 0.11 | 1.8 | 83.7
Y140W | 0.21 | 2.97 | 51.7 | 0.31 | 1.87 | 78.6
Y140S | – | – | 50.6 | -0.79 | 1.96 | 79.9
Y140L | 0.36 | 2.83 | 50.7 | -0.69 | 1.92 | 78.9
